Data taken from US20090172842.

Target: T1, endogenous tobacco RUBISCO small subunit, P69249
T1 chain: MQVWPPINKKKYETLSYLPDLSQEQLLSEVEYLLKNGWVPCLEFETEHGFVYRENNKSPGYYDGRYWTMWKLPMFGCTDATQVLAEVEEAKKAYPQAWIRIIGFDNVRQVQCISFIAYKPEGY

B1: Griffithsia monilis RUBISCO large subunit with C-terminal 6-His tag, product of the chloroplast transgene cpGMNrbcL (pTCP104 tobacco) (protein)
chain: MANSVEERTRIKNERYESGVIPYAKMGYWDPNYAVKDTDILALFRVSPQPGVDPVEASAAVAGESSTATWTVVWTDLLTACDLYRAKAYKVESVPNTSDQYFAYISYDIDLFEEGSIANLTASIIGNVFGFKAVKALRLEDMRIPVAYLKTFQGPATGIVVERERMDKFGRPFLGATVKPKLGLSGKNYGRVVYEGLRGGLDFLKDDENINSQPFMRWKERFLYSIEAVNRSIAATGEVKGHYMNVTAATMEEMYERAEFAKQLGTVIIMIDLVIGYTAIQTMGIWARKNDMILHLHRAGNSTYSRQKIHGMNFRVICKWMRMAGVDHIHAGTVVGKLEGDPLMIRGFYNTLLLPYLEVNLPQGIFFQQDWASLRKVTPVASGGIHCGQMHQLLDYLGNDVVLQFGGGTIGHPDGIQAGATANRVALESMVIARNEGRDYVAEGPQILRDAAKTCGPLQTALDLWKDITFNYTSTDTADFVETPTANVHHHHHH
- RUBISCO Activity (RuBP-dependent 14CO2 fixation), pTCP104-1 tobacco crude extract: 0 mU/mg
- RUBISCO Activity (RuBP-dependent 14CO2 fixation), pTCP104-1 tobacco purified rubisco: 2.1 mU/mg
